Patent publication US7807387B2, “Biological agent that causes IL-6 receptor release” (Meyer Pharmaceuticals LLC, priority 2003, dated 2010)

Assays:
[1] = system: carrageenan-induced paw edema; assay: Carrageenan-induced paw edema; type: in vivo, Sprague Dawley rats
Protocol: Based on the standard model (Winter et al., Proc Soc Exp Biol Med 111:544, 1962; Hansra et al., Inflammation 24:141, 2000), the experiment was performed as follows. Male Sprague Dawley rats were randomized by weight into three treatment groups. The animals were administered MP8 or control solution subcutaneously, or indomethacin by mouth. One hour later, they were injected in the left hind paw with a sterile solution of 1% carrageenan suspension in water, in order to induce swelling. Three hours later, the volume of the injected paw was measured by water displacement in a water plethysmograph (mean±SEM; 10 animals per group).
Male Sprague Dawley rats were administered with test protein or indomethacin (anti-inflammatory control), and then challenged in a hind footpad with carrageenan, as in Example 12.

[2] = system: p55 or p75 TNF receptor; conditions: cited from earlier work
[3] = Isoelectric point; type: physicochemical
[4] = system: TNF receptor; assay: Cell surface cleavage assay, release of TNF receptor isoforms by enzyme immunoassay; type: cell-based; conditions: 25 μg protein with 2.5×10^6 cells; (treated—untreated)/untreated
Protocol: To determine cell surface cleavage activity, 25 μg of MP8-FL2 was combined with 2.5×10^6 cells. Release of both TNF receptor isoforms was determined by enzyme immunoassay as (treated—untreated)/untreated.

[5] = system: LPS-induced septic shock; assay: LPS/galactosamine-induced septic shock model; type: in vivo, Balb/c mice; conditions: up to 40 μg one hour before 10 μg LPS and 15 mg galactosamine
Protocol: A classic model for determining effectiveness of agents against cytokine-mediated inflammation is endotoxin-induced septic shock (Morrison et al., J Infect Dis 162:1063, 1990).
The septic shock experiment was conducted as follows. Female Balb/c mice were randomized by weight into 6 treatment groups. Sepsis was induced by injecting 10 μg LPS and 7 mg galactosamine in the lateral or dorsal caudal vein. Some of the groups were pretreated with 50,000 FU of MP8 simultaneously or 3 hours in advance of the LPS challenge to determine whether there was a protective effect.
FIG. 8 is a Kaplan-Meier survival curve, showing the mortality in each of the treatment groups in the study. Without any treatment or challenge, there is no effect on the animals, and the line stays at the top. Life-compromising challenge causes the line to fall to the bottom of the graph in a step-wise fashion as each animal succumbs. Treatment that is protective against the challenge maintains the line near the top of the graph.
The enzyme was administered in a volume of 110 μL at one hour before the LPS challenge.
Stability of the clinical effect of MP8 was determined in the septic shock model. Female Balb/c mice were injected with 300,000 FU of MP8 that had been stored for 4 days at −70° C., or 7 days at 4° C. One hour later, the mice were challenged with 10 μg LPS and 7 mg galactosamine as before.
In this example, durability of receptor cleavage in vivo was determined by treating animals subcutaneously up to three days in advance with 300,000 FU of MP8. The mice were then challenged with […] LPS and 7 mg galactosamine in the usual fashion.
Sepsis was induced in Balb/c mice by administering 10 μg LPS and […] galactosamine, as in Example 3. Randomized groups were pretreated with up to 40 μg MP8-FL2 one hours in advance of the LPS challenge.

[6] = molecular target: p55 TNF Receptor (Homo sapiens, UniProt P19438); assay: FRET peptide cleavage assay, p55 TNF receptor peptide; type: biochemical; conditions: Zn++ 0.1 mM, Ca++ 2 mM, corrected for EDTA, 37° C. for 3 hours
Protocol: Cytokine-specific proteolytic activity can rapidly be quantified by Fluorescence Resonance Energy Transfer (FRET). Peptides having the amino acid sequence of the TNF Receptor or other protein substrates are labeled at opposite ends with a fluorescence emitter and a fluorescence quencher. The peptide is then incubated with a source of receptor cleaving enzyme, and fluorescence is measured. The quenching group normally absorbs fluorescence from the emitter. But enzymatic cleavage of the peptide decouples the quenching group, and fluorescence emission increases proportionally.
The peptides used as substrates in the cleavage assay were taken from the known sites of proteolytic cleavage of the whole protein. The peptides were labeled with the fluorescence emitter (Edans-●) at the C-terminal, and the quenching hapten (Dabcyl-▴) at the N-terminal.
The assay is conducted in the presence of the metal cations Zn^++ (0.1 mM) and Ca^++ (2 mM), and corrected for cleavage in the presence of EDTA (20 mM). Dependence on divalent cations confirms that the enzyme activity measured in this assay is a metalloprotease. The assay mixture also contains a cocktail of protease inhibitors and bovine albumin. Cleavage is measured as the net change in fluorescence emission after incubating the enzyme with the peptide at 37° C. for 3 hours. […]

Q: With `COc1ccc2c(c1)c(CC(=O)O)c(C)n2C(=O)c1ccc(Cl)cc1` [indomethacin, reference compound] as the molecule, how does the “inhibition of edema formation” value ([1]; given one hour before carrageenan, paw volume three hours later, MP8 subcutaneously, indomethacin by mouth) read?
A: 49%

B1: ADAM-10: metalloprotease (protein, UniProt O14672 214-748, looked up)
Disintegrin and …: TTSAEKNTCQLYIQTDHLFFKYYGTREAVIAQISSHVKAIDTIYQTTDFSGIRNISFMVKRIRINTTADEKDPTNPFRFPNIGVEKFLELNSEQNHDDYCLAYVFTDRDFDDGVLGLAWVGAPSGSSGGICEKSKLYSDGKKKSLNTGIITVQNYGSHVPPKVSHITFAHEVGHNFGSPHDSGTECTPGESKNLGQKENGNYIMYARATSGDKLNNNKFSLCSIRNISQVLEKKRNNCFVESGQPICGNGMVEQGEECDCGYSDQCKDECCFDANQPEGRKCKLKPGKQCSPSQGPCCTAQCAFKSKSEKCRDDSDCAREGICNGFTALCPASDPKPNFTDCNRHTQVCINGQCAGSICEKYGLEECTCASSDGKDDKELCHVCCMKKMDPSTCASTGSVQWSRHFSGRTITLQPGSPCNDFRGYCDVFMRCRLVDADGPLARLKKAIFSPELYENIAEWIVAHWWAVLLMGIALIMLMAGFIKICSVHTPSSNPKLPPPKPLPGTLKRRRPPQPIQQPQRQRPRESYQMGHMRR
Q: With B1 as the molecule, how does the “cleavage of p55 or p75 TNF receptor” value [2] read?
A: do not efficiently cleave

B2: MDC-9: metalloprotease (protein, UniProt Q13443 29-819, looked up)
Disintegrin and …: AARPGFQQTSHLSSYEIITPWRLTRERREAPRPYSKQVSYVIQAEGKEHIIHLERNKDLLPEDFVVYTYNKEGTLITDHPNIQNHCHYRGYVEGVHNSSIALSDCFGLRGLLHLENASYGIEPLQNSSHFEHIIYRMDDVYKEPLKCGVSNKDIEKETAKDEEEEPPSMTQLLRRRRAVLPQTRYVELFIVVDKERYDMMGRNQTAVREEMILLANYLDSMYIMLNIRIVLVGLEIWTNGNLINIVGGAGDVLGNFVQWREKFLITRRRHDSAQLVLKKGFGGTAGMAFVGTVCSRSHAGGINVFGQITVETFASIVAHELGHNLGMNHDDGRDCSCGAKSCIMNSGASGSRNFSSCSAEDFEKLTLNKGGNCLLNIPKPDEAYSAPSCGNKLVDAGEECDCGTPKECELDPCCEGSTCKLKSFAECAYGDCCKDCRFLPGGTLCRGKTSECDVPEYCNGSSQFCQPDVFIQNGYPCQNNKAYCYNGMCQYYDAQCQVIFGSKAKAAPKDCFIEVNSKGDRFGNCGFSGNEYKKCATGNALCGKLQCENVQEIPVFGIVPAIIQTPSRGTKCWGVDFQLGSDVPDPGMVNEGTKCGAGKICRNFQCVDASVLNYDCDVQKKCHGHGVCNSNKNCHCENGWAPPNCETKGYGGSVDSGPTYNEMNTALRDGLLVFFFLIVPLIVCAIFIFIKRDQLWRSYFRKKRSQTYESDGKNQANPSRQPGSVPRHVSPVTPPREVPIYANRFAVPTYAAKQPQQFPSRPPPPQPKVSSQGNLIPARPAPAPPLYSSLT
Q: Which “cleavage of p55 or p75 TNF receptor” value [2] does the source give for B2 here?
A: do not efficiently cleave

B3: MP8-FL2: full length MP8 (SEQ. ID NO:53) without HIS tag, produced from E. coli strain MP820 (protein, listed as Homo sapiens)
chain: MCVHPGACLPHVGVSWAEFPGHFSVELSSLLVRNVNYEIPSLKKQIAKCQQLQQEYSRKEEECQAGAAEMREQFYHSCKQYGITGENVRGELLALVKDLPSQLAEIGAAAQQSLGEAIDVYQASVGFVCESPTEQVLPMLRFVQKRGNSTVYEWRTGTEPSVVERPHLEELPEQVAEDAIDWGDFGVEAVSEGTDSGISAEAAGIDWGIFPESDSKDPGGDGIDWGDDAVALQITVLEAGTQAPEGVARGPDALTLLEYTETRNQFLDELMELEIFLAQRAVELSEEADVLSVSQFQLAPAILQGQTKEKMVTMVSVLEDLIGKLTSLQLQHLFMILASPRYVDRVTEFLQQKLKQSQLLALKKELMVQKQQEALEEQAALEPKLDLLLEKTKELQKLIEADISKRYSGRPVNLMGTSL
Q: Which results are given for B3?
A: paw swelling ([1]; challenge in hind footpad with carrageenan as in Example 12): significantly prevented paw swelling; Isoelectric Point - By isoelectric focusing [3]: 5.6; cleavage and release of TNF receptor from the cell surface [4]: cause cleavage and release of TNF receptor, with preference for the R1 (p55) isoform; protection against septic shock [5]: protected the mice in a dose-dependent fashion; cleavage of p55 TNF receptor (R1) peptide [6]: caused cleavage
